From US20190092832A1 (published 2019) come the findings set out here.

This assay concerns the target T1, interferon-alpha/beta receptor alpha chain (IFNAR1) (UniProt P17181 28-436, limits assumed).
T1 sequence (looked up): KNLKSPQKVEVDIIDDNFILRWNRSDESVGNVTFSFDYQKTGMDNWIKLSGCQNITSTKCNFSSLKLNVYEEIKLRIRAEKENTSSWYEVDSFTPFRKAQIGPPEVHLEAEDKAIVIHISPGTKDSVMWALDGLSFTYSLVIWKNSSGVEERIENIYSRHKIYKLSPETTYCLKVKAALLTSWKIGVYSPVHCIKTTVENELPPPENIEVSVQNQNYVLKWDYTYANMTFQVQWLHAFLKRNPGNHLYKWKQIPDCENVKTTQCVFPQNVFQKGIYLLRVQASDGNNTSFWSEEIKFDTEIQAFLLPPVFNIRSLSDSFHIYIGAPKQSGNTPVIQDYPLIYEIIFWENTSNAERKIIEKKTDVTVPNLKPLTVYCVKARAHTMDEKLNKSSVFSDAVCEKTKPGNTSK
In words: intrinsic fluorescence quenching of IFNAR1 titrated with peptide, double-log plot, 298 K. On the procedure: […] Protein intrinsic fluorescence experiments were carried out at constant IFNAR1 concentration titrated with different concentrations of IFNβ analog peptide to reach a maximum molar ratio of the IFNβ analog peptide-IFNAR1, and the complex maximum molar ratio of the IFNβ analog peptide-IFNAR1 was 10.
In these experiments, 1.0 ml solution with a fixed concentration of the […] was precisely added into the quartz cell with a 1 cm path length and was manually titrated by successive additions of the IFNβ analog peptide at 5 min time intervals. The fluorescence emission spectra were then measured, and the maximum fluorescence intensity at a wavelength of about 340 nm was used to calculate the binding constant parameters.
Fluorescence quenching data from the interaction of the IFNβ analog peptide and IFNAR1 were analyzed to obtain various binding parameters. The binding constant (Kₐ) and the number of binding (n) were calculated according to the Eq. 1, where F₀ is the fluorescence emission intensities of IFNAR1 in the absence of the IFNβ analog peptide, F is the fluorescence emission intensities of IFNAR1 in the presence of the IFNβ analog peptide, [P] is the IFNβ analog peptide concentration, Kₐ is the binding constant, and n is the apparent molar ratio of [IFNβ analog peptide]/[IFNAR1] complex.

B1: IFNβ analog peptide with SEQ ID No. 2 (peptide)
peptide: MLQNGRDVRKRGFSDTGLRKLGRVNLL
notes: also called MSPEP27
In the case of B1, the Ka was determined as 3.67e+07 M⁻¹.
